Response data for six variants are collected here from article PMC12947862, “Oligomerization enables the selective targeting of an intrinsically disordered region by a small molecule” (Science Advances, 2026).

Sequences and labels used below:
B1: AR AD fragment transactivation unit 5 (Tau-5*; residues 330 to 448) [human (from the printed UniProt entry)] / itself (parent)
chain: AAGSSGTLELPSTLSLYKSGALDEAAAYQSRDYYNFPLALAGPPPPPPPPHPHARIKLENPLDYGSAWAAAAAQCRYGDLASLHGAGAAGPGSGSPSAAASSSWHTLFTAEEGQLYGPC

Variants of B1 are the subject of the experiment. Kind of experiment: 2D 1H-15N NMR, concentration-dependent CSPs (self-association). The note with it: with itself; protein concentration from 25 to 400 μM; read off a plot.
In the case of chain 1 L107P, the response turned out to be 0.0065 p.p.m.

For chain 1 A69P, the response was 0.005 p.p.m.

With chain 1 G78A, the response is 0.013 p.p.m.

chain 1 G65A S66A G78A: the response was found to be 0.02 p.p.m.

Regarding chain 1 C75Y, the response came out at 0.019 p.p.m.

Take chain 1 W104A H105A F108A: the response came out at 0.0068 p.p.m.
